Laboratory results published in paper PMC7367873, “Dissecting the sequence determinants for dephosphorylation by the catalytic subunits of phosphatases PP1 and PP2A” (Nature Communications, 2020).

B1: TP53BP2 (protein, UniProt Q13625 1-1128, looked up)
Apoptosis-stimulating of p53 …: MMPMFLTVYLSNNEQHFTEVPVTPETICRDVVDLCKEPGESDCHLAEVWCGSERPVADNERMFDVLQRFGSQRNEVRFFLRHERPPGRDIVSGPRSQDPSLKRNGVKVPGEYRRKENGVNSPRMDLTLAELQEMASRQQQQIEAQQQLLATKEQRLKFLKQQDQRQQQQVAEQEKLKRLKEIAENQEAKLKKVRALKGHVEQKRLSNGKLVEEIEQMNNLFQQKQRELVLAVSKVEELTRQLEMLKNGRIDSHHDNQSAVAELDRLYKELQLRNKLNQEQNAKLQQQRECLNKRNSEVAVMDKRVNELRDRLWKKKAALQQKENLPVSSDGNLPQQAASAPSRVAAVGPYIQSSTMPRMPSRPELLVKPALPDGSLVIQASEGPMKIQTLPNMRSGAASQTKGSKIHPVGPDWSPSNADLFPSQGSASVPQSTGNALDQVDDGEVPLREKEKKVRPFSMFDAVDQSNAPPSFGTLRKNQSSEDILRDAQVANKNVAKVPPPVPTKPKQINLPYFGQTNQPPSDIKPDGSSQQLSTVVPSMGTKPKPAGQQPRVLLSPSIPSVGQDQTLSPGSKQESPPAAAVRPFTPQPSKDTLLPPFRKPQTVAASSIYSMYTQQQAPGKNFQQAVQSALTKTHTRGPHFSSVYGKPVIAAAQNQQQHPENIYSNSQGKPGSPEPETEPVSSVQENHENERIPRPLSPTKLLPFLSNPYRNQSDADLEALRKKLSNAPRPLKKRSSITEPEGPNGPNIQKLLYQRTTIAAMETISVPSYPSKSASVTASSESPVEIQNPYLHVEPEKEVVSLVPESLSPEDVGNASTENSDMPAPSPGLDYEPEGVPDNSPNLQNNPEEPNPEAPHVLDVYLEEYPPYPPPPYPSGEPEGPGEDSVSMRPPEITGQVSLPPGKRTNLRKTGSERIAHGMRVKFNPLALLLDSSLEGEFDLVQRIIYEVDDPSLPNDEGITALHNAVCAGHTEIVKFLVQFGVNVNAADSDGWTPLHCAASCNNVQVCKFLVESGAAVFAMTYSDMQTAADKCEEMEEGYTQCSQFLYGVQEKMGIMNKGVIYALWDYEPQNDDELPMKEGDCMTIIHREDEDEIEWWWARLNDKEGYVPRNLLGLYPRIKPRQRSLA
B2: PPP1R3D (protein, UniProt O95685 1-299, looked up)
Protein phosphatase 1 …: MSRGPSSAVLPSALGSRKLGPRSLSCLSDLDGGVALEPRACRPPGSPGRAPPPTPAPSGCDPRLRPIILRRARSLPSSPERRQKAAGAPGAACRPGCSQKLRVRFADALGLELAQVKVFNAGDDPSVPLHVLSRLAINSDLCCSSQDLEFTLHCLVPDFPPPVEAADFGERLQRQLVCLERVTCSDLGISGTVRVCNVAFEKQVAVRYTFSGWRSTHEAVARWRGPAGPEGTEDVFTFGFPVPPFLLELGSRVHFAVRYQVAGAEYWDNNDHRDYSLTCRNHALHMPRGECEESWIHFI
B3: FAM83G (protein, UniProt A6ND36 2-823, looked up)
Protein FAM83G: AFSQVQCLDDNHVNWRSSESKPEFFYSEEQRLALEALVARGRDAFYEVLKRENIRDFLSELELKRILETIEVYDPGSEDPRGTGPSQGPEDNGVGDGEEASGADGVPIEAEPLPSLEYWPQKSDRSIPQLDLGWPDTIAYRGVTRASVYMQPPIDGQAHIKEVVRKMISQAQKVIAVVMDMFTDVDIFKDLLDAGFKRKVAVYIIVDESNVKYFLHMCERACMHLGHLKNLRVRSSGGTEFFTRSATKFKGALAQKFMFVDGDRAVCGSYSFTWSAARTDRNVISVLSGQVVEMFDRQFQELYLMSHSVSLKGIPMEKEPEPEPIVLPSVVPLVPAGTVAKKLVNPKYALVKAKSVDEIAKISSEKQEAKKPLGLKGPALAEHPGELPELLPPIHPGLLHLERANMFEYLPTWVEPDPEPGSDILGYINIIDPNIWNPQPSQMNRIKIRDTSQASAQHQLWKQSQDSRPRPEPCPPPEPSAPQDGVPAENGLPQGDPEPLPPVPKPRTVPVADVLARDSSDIGWVLELPKEEAPQNGTDHRLPRMAGPGHAPLQRQLSVTQDDPESLGVGLPNGLDGVEEEDDDDYVTLSDQDSHSGSSGRGPGPRRPSVASSVSEEYFEVREHSVPLRRRHSEQVANGPTPPPRRQLSAPHITRGTFVGPQGGSPWAQSRGREEADALKRMQAQRSTDKEAQGQQFHHHRVPASGTRDKDGFPGPPRYRSAADSVQSSTRNAGPAMAGPHHWQAKGGQVPRLLPDPGSPRLAQNARPMTDGRATEEHPSPFGIPYSKLSQSKHLKARTGGSQWASSDSKRRAQAPRDRKDP
B4: CDC25B (protein, UniProt P30305 1-580, looked up)
M-phase inducer phosphatase 2: MEVPQPEPAPGSALSPAGVCGGAQRPGHLPGLLLGSHGLLGSPVRAAASSPVTTLTQTMHDLAGLGSETPKSQVGTLLFRSRSRLTHLSLSRRASESSLSSESSESSDAGLCMDSPSPMDPHMAEQTFEQAIQAASRIIRNEQFAIRRFQSMPVRLLGHSPVLRNITNSQAPDGRRKSEAGSGAASSSGEDKENDGFVFKMPWKPTHPSSTHALAEWASRREAFAQRPSSAPDLMCLSPDRKMEVEELSPLALGRFSLTPAEGDTEEDDGFVDILESDLKDDDAVPPGMESLISAPLVKTLEKEEEKDLVMYSKCQRLFRSPSMPCSVIRPILKRLERPQDRDTPVQNKRRRSVTPPEEQQEAEEPKARVLRSKSLCHDEIENLLDSDHRELIGDYSKAFLLQTVDGKHQDLKYISPETMVALLTGKFSNIVDKFVIVDCRYPYEYEGGHIKTAVNLPLERDAESFLLKSPIAPCSLDKRVILIFHCEFSSERGPRMCRFIRERDRAVNDYPSLYYPEMYILKGGYKEFFPQHPNFCEPQDYRPMNHEAFKDELKTFRLKTRSWAGERSRRELCSRLQDQ
B5: NEDD4L (protein, UniProt Q96PU5 2-975, looked up)
E3 ubiquitin-protein ligase …: ATGLGEPVYGLSEDEGESRILRVKVVSGIDLAKKDIFGASDPYVKLSLYVADENRELALVQTKTIKKTLNPKWNEEFYFRVNPSNHRLLFEVFDENRLTRDDFLGQVDVPLSHLPTEDPTMERPYTFKDFLLRPRSHKSRVKGFLRLKMAYMPKNGGQDEENSDQRDDMEHGWEVVDSNDSASQHQEELPPPPLPPGWEEKVDNLGRTYYVNHNNRTTQWHRPSLMDVSSESDNNIRQINQEAAHRRFRSRRHISEDLEPEPSEGGDVPEPWETISEEVNIAGDSLGLALPPPPASPGSRTSPQELSEELSRRLQITPDSNGEQFSSLIQREPSSRLRSCSVTDAVAEQGHLPPPSAPAGRARSSTVTGGEEPTPSVAYVHTTPGLPSGWEERKDAKGRTYYVNHNNRTTTWTRPIMQLAEDGASGSATNSNNHLIEPQIRRPRSLSSPTVTLSAPLEGAKDSPVRRAVKDTLSNPQSPQPSPYNSPKPQHKVTQSFLPPGWEMRIAPNGRPFFIDHNTKTTTWEDPRLKFPVHMRSKTSLNPNDLGPLPPGWEERIHLDGRTFYIDHNSKITQWEDPRLQNPAITGPAVPYSREFKQKYDYFRKKLKKPADIPNRFEMKLHRNNIFEESYRRIMSVKRPDVLKARLWIEFESEKGLDYGGVAREWFFLLSKEMFNPYYGLFEYSATDNYTLQINPNSGLCNEDHLSYFTFIGRVAGLAVFHGKLLDGFFIRPFYKMMLGKQITLNDMESVDSEYYNSLKWILENDPTELDLMFCIDEENFGQTYQVDLKPNGSEIMVTNENKREYIDLVIQWRFVNRVQKQMNAFLEGFTELLPIDLIKIFDENELELLMCGLGDVDVNDWRQHSIYKNGYCPNHPVIQWFWKAVLLMDAEKRIRLLQFVTGTSRVPMNGFAELYGSNGPQLFTIEQWGSPEKLPRAHTCFNRLDLPPYETFEDLREKLLMAVENAQGFEGVD
B6: PPFIBP1 (protein, UniProt Q86W92 1-1011, looked up)
Liprin-beta-1: MMSDASDMLAAALEQMDGIIAGSKALEYSNGIFDCQSPTSPFMGSLRALHLVEDLRGLLEMMETDEKEGLRCQIPDSTAETLVEWLQSQMTNGHLPGNGDVYQERLARLENDKESLVLQVSVLTDQVEAQGEKIRDLEFCLEEHREKVNATEEMLQQELLSRTSLETQKLDLMAEISNLKLKLTAVEKDRLDYEDKFRDTEGLIQEINDLRLKVSEMDSERLQYEKKLKSTKSLMAKLSSMKIKVGQMQYEKQRMEQKWESLKDELASLKEQLEEKESEVKRLQEKLVCKMKGEGVEIVDRDIEVQKMKKAVESLMAANEEKDRKIEDLRQCLNRYKKMQDTVVLAQGKDGEYEELLNSSSISSLLDAQGFSDLEKSPSPTPVMGSPSCDPFNTSVPEEFHTTILQVSIPSLLPATVSMETSEKSKLTPKPETSFEENDGNIILGATVDTQLCDKLLTSSLQKSSSLGNLKKETSDGEKETIQKTSEDRAPAESRPFGTLPPRPPGQDTSMDDNPFGTRKVRSSFGRGFFKIKSNKRTASAPNLAETEKETAEHLDLAGASSRPKDSQRNSPFQIPPPSPDSKKKSRGIMKLFGKLRRSQSTTFNPDDMSEPEFKRGGTRATAGPRLGWSRDLGQSNSDLDMPFAKWTKEQVCNWLMEQGLGSYLNSGKHWIASGQTLLQASQQDLEKELGIKHSLHRKKLQLALQALGSEEETNHGKLDFNWVTRWLDDIGLPQYKTQFDEGRVDGRMLHYMTVDDLLSLKVVSVLHHLSIKRAIQVLRINNFEPNCLRRRPSDENTIAPSEVQKWTNHRVMEWLRSVDLAEYAPNLRGSGVHGGLMVLEPRFNVETMAQLLNIPPNKTLLRRHLATHFNLLIGAEAQHQKRDAMELPDYVLLTATAKVKPKKLAFSNFGNLRKKKQEDGEEYVCPMELGQASGSASKKGFKPGLDMRLYEEDDLDRLEQMEDSEGTVRQIGAFSEGINNLTHMLKEDDMFKDFAARSPSASITDEDSNV
B7: FAM122B (protein, UniProt Q7Z309 2-247, looked up)
PABIR family member 2: AQEKMELDLEPDTSYGGTLRRSSSAPLIHGLSDLSQVFQPYTLRTRRNSTTIMSRHSLEEGLDMVNRETAHEREMQTAMQISQSWDESLSLSDSDFDKPEKLYSPKRIDFTPVSPAPSPTRGFGKMFVSSSGLPPSPVPSPRRFSRRSQSPVKCIRPSVLGPLKRKGEMETESQPKRLFQGTTNMLSPDAAQLSDLSSCSDILDGSSSSSGLSSDPLAKGSATAESPVACSNSCSSFILMDDLSPK

test system: GFP-14-3-3β; assay: GFP-14-3-3β co-IP with LC-MS/MS, untreated GFP-14-3-3β versus GFP control (14-3-3 interactome); format: binding, human; conditions: pairwise comparison untreated GFP-14-3-3β vs GFP, student's t-test; 3 replicates each; LC-MS/MS label-free quantification

Molecule | Difference (log2), untreated vs GFP [log2]
B1 | 3.807
B2 | 3.78
B3 | 4.695
B4 | 4.101
B5 | 4.407
B6 | 6.964
B7 | 4.879

test system: GFP-14-3-3β and its binding proteins; assay: GFP-14-3-3β co-IP with LC-MS/MS label-free quantification, untreated versus PP1c-treated; parameters: species or system human; conditions: GFP-14-3-3β co-IP, PP1vsUntrted, Perseus raw output, LFQ intensity difference

Molecule | Difference
B3 | -4.783

same assay, conditions: pairwise comparison PP1 vs untreated, student's t-test; 3 replicates each; LC-MS/MS label-free quantification

Molecule | Difference (log2), PP1 vs untreated [log2]
B1 | -4.694
B2 | -4.778
B3 | -4.783
B4 | -5.046
B5 | -5.048
B6 | -5.566
B7 | -5.572
